The source of these data is PMC3236217.

One assay has as its target inactive ERK2 (UniProt P63086). Kind of assay: pull-down; 9 µg active phosphorylated (without or with 1 mM ATP) or inactive ERK2 covalently attached to CNBr-activated Sepharose, 3 µg purified arrestin in 60 µl of 50 mM Tris-HCl pH 7.4, 100 mM KCl, 1 mM EGTA, 1 mM DTT, 20 min at 30°C; two washes; bound arrestin quantified by Western blot. A general note: Immunoblotting shows a protein as a band on a membrane.

Assay [1] addresses constitutively active MEK1, Q02750.
The target of assay [2] is T1, active ERK2 phosphorylated at Thr183 and Tyr185 (PP-ERK2), P63086.
T1 chain: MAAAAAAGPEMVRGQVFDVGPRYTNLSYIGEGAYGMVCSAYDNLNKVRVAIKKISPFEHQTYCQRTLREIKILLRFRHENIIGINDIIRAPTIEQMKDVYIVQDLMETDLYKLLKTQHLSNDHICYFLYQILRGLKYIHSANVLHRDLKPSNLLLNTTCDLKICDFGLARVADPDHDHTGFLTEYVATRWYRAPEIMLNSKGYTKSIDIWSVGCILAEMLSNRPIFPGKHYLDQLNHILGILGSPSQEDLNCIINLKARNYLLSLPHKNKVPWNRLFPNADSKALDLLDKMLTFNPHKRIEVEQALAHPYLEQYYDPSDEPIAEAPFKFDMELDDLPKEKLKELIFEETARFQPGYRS
Kind of assay: pull-down on ERK2-Sepharose (CNBr-activated Sepharose with covalently attached ERK2), bound arrestin quantified by Western blot. Particulars: chain shown with the change, 9 µg immobilised ERK2, 3 µg arrestin in 60 µl, 50 mM Tris-HCl, pH 7.4, 100 mM KCl, 1 mM EGTA, 1 mM DTT, 20 min at 30°C, read off a plot.

The target of another assay is T2, inactive ERK2, P63086.
T2 chain: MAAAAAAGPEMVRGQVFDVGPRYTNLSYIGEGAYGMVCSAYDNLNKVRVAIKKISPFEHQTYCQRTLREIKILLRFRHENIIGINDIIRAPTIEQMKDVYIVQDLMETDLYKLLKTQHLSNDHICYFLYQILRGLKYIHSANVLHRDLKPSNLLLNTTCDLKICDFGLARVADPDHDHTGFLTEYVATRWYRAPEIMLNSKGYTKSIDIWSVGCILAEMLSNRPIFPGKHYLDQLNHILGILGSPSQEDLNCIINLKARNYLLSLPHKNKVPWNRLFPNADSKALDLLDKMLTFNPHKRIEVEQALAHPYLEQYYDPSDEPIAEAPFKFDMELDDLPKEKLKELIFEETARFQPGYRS
The assay is described as above. Particulars: chain shown with the change; no ATP; 9 µg immobilised ERK2, 3 µg arrestin in 60 µl; 50 mM Tris-HCl, pH 7.4, 100 mM KCl, 1 mM EGTA, 1 mM DTT; 20 min at 30°C; parent: est. 1.6; read off a plot.

With “arrestin-2 (from UniProt P17870 1-418) (natural protein)”, the binding to inactive ERK2 as percent of that to the active form in the assay with inactive ERK2 was determined as 33%.

B1: arrestin-3, P32120 1-420 (natural protein)
chain: MGEKPGTRVFKKSSPNCKLTVYLGKRDFVDHLDKVDPVDGVVLVDPDYLKDRKVFVTLTCAFRYGREDLDVLGLSFRKDLFIANYQAFPPTPNPPRPPTRLQERLLRKLGQHAHPFFFTIPQNLPCSVTLQPGPEDTGKACGVDFEIRAFCAKSLEEKSHKRNSVRLVIRKVQFAPEKPGPQPSAETTRHFLMSDRSLHLEASLDKELYYHGEPLNVNVHVTNNSTKTVKKIKVSVRQYADICLFSTAQYKCPVAQVEQDDQVSPSSTFCKVYTITPLLSNNREKRGLALDGKLKHEDTNLASSTIVKEGANKEVLGILVSYRVKVKLVVSRGGDVSVELPFVLMHPKPHDHIALPRPQSAATHPPTLLPSAVPETDAPVDTNLIEFETNYATDDDIVFEDFARLRLKGLKDEDYDDQFC
B1: the increase of ERK2 phosphorylation (32P incorporation) by purified MEK1 in the presence of 4.4 pmol arrestin-3, against no arrestin in assay [1] worked out at 41%.

B2: arrestin-2, P17870 3A (protein)
chain: MGDKGTRVFKKASPNGKLTVYLGKRDFVDHIDLVEPVDGVVLVDPEYLKERRVYVTLTCAFRYGREDLDVLGLTFRKDLFVANVQSFPPAPEDKKPLTRLQERLIKKLGEHAYPFTFEIPPNLPCSVTLQPGPEDTGKACGVDYEVKAFCAENLEEKIHKRNSVRLVIRKVQYAPERPGPQPTAETTRQFLMSDKPLHLEASLDKEIYYHGEPISVNVHVTNNTNKTVKKIKISVRQYADICLFNTAQYKCPVAMEEADDTVAPSSTFCKVYTLTPFLANNREKRGLALDGKLKHEDTNLASSTLLREGANREILGIIVSYKVKVKLVVSRGGLLGDLASSDVAVELPFTLMHPKPKEEPPHREVPEHETPVDTNLIELDTNDDDAAAEDFARQRLKGMKDDKEEEEDGTGSPRLNDR
In the case of B2, the response in assay [2] (no ATP, parent: est. 4.6) turned out to be 1.4 pmol; in assay [2] (with 1 mM ATP, parent: est. 3.0) it was 1.7 pmol; with inactive ERK2, P63086, 0.9 pmol.

B3: arrestin-2, P17870 1-418 (natural protein)
chain: MGDKGTRVFKKASPNGKLTVYLGKRDFVDHIDLVEPVDGVVLVDPEYLKERRVYVTLTCAFRYGREDLDVLGLTFRKDLFVANVQSFPPAPEDKKPLTRLQERLIKKLGEHAYPFTFEIPPNLPCSVTLQPGPEDTGKACGVDYEVKAFCAENLEEKIHKRNSVRLVIRKVQYAPERPGPQPTAETTRQFLMSDKPLHLEASLDKEIYYHGEPISVNVHVTNNTNKTVKKIKISVRQYADICLFNTAQYKCPVAMEEADDTVAPSSTFCKVYTLTPFLANNREKRGLALDGKLKHEDTNLASSTLLREGANREILGIIVSYKVKVKLVVSRGGLLGDLASSDVAVELPFTLMHPKPKEEPPHREVPEHETPVDTNLIELDTNDDDIVFEDFARQRLKGMKDDKEEEEDGTGSPRLNDR
In the case of B3, the increase of ERK2 phosphorylation (32P incorporation) by purified MEK1 in the presence of 4.4 pmol arrestin-2, against no arrestin in assay [1] is 33%.
